Measurements published in patent US7026125, “Heterodimers of retinoid X receptors (RXRS) and other steroid hormone receptors” (Ligand Pharmaceuticals).

Assays:
[1] = target: Flag-TRα/RXRα heterodimer (UniProt P10827-2;P19793 P10827-2:1-410,P19793:1-462); experiment: EMSA; inhibited by anti-Flag; conditions: tags: N-terminal Flag on TRα; label: 32P
Procedure: (§1) (b) Effect of anti-Flag-TRα antibody on binding of the slow migrating complex. In vitro synthesized Flag-TRα (F-TRα) protein was incubated with in vitro synthesized RXRα protein in the presence or absence of anti-Flag antibody. The effect of antibody on DNA binding of the slow migrating complex was analyzed as described in FIG. 2a. For control, the receptor mixture was also incubated with preimmune serum (NI). The effect of anti-Flag antibody on DNA binding of Flag-RXRα, RXRα, Flag-TRα, and TRα was also analyzed. For comparison, anti-Flag antibody/Flag-RXRα-TRα interaction was run on the same gel (lanes 7–10).
(§2) In vitro translated receptor protein (1 to 5 μl depending on the translation efficiency) was incubated with the ^32P-labeled oligonucleotides in a 20-μl reaction mixture containing 10 mM hepes buffer, pH 7.9, 50 mM KCl, 1 mM DTT, 2.5 mM MgCl, 10% glycerol, and 1 μg of poly(dI-dC) at 25° C. for 20 minutes. In general, relative low receptor concentration was used to obtain the clear effect of heterodimer formation. The reaction mixture was then loaded on a 5% nondenaturing ployacrylamide gel containing 0.5×TBE (1×TBE=0.089 M Tris-borate, 0.089 M boric acid, and 0.002 M EDTA). […]

Flag-TRα = target: T1, Flag-TRα (UniProt P10827-2 P10827-2:1-410); experiment: EMSA; supershifted by anti-Flag; conditions: tags: N-terminal Flag; label: 32P
T1 sequence: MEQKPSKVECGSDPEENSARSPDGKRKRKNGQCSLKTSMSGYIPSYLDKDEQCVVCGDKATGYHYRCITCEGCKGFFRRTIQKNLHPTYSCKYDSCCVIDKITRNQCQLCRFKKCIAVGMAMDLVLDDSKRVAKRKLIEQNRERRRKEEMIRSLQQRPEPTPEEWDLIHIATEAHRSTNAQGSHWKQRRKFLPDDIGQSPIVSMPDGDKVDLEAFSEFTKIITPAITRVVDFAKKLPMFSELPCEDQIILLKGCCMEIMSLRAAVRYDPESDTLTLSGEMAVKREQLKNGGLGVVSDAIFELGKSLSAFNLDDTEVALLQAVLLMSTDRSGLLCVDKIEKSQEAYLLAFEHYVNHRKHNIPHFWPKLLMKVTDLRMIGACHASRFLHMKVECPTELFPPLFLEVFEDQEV
Procedure: as §1, §2

TRα/RXRαm4 = TRα/RXRαm4 (UniProt P10827-2;P19793 P10827-2:1-410,P19793:61-462, RXRα N-terminal deletion of 61 aa); experiment: EMSA; faster migrating than RXRαm3 complex; conditions: label: 32P
Procedure: (§3) In general, relative low receptor concentration was used to obtain the clear effect of heterodimer formation. The reaction mixture was then loaded on a 5% nondenaturing ployacrylamide gel containing 0.5×TBE (1×TBE=0.089 M Tris-borate, 0.089 M boric acid, and 0.002 M EDTA). To analyze the effect of RXRα or the nuclear proteins on receptor DNA binding activity, RXRα or the cell extracts were preincubated with receptor protein at room temperature for 10 minutes before performing the DNA binding assay. When antibody was used, 1 μl of the antiserum was incubated with the specific translation products at room temperature for 45 minutes before performing the experiments described above.

TRβ/RXRα heterodimer = TRβ/RXRα heterodimer (UniProt P10828;P19793 P10828:1-461,P19793:1-462); experiment: EMSA; upshifted complex; conditions: label: 32P
Procedure: (§4) (a) In vitro synthesized TRα, TRβ, RARα, RARβ, RARγ and TRα2 receptor proteins were preincubated either with (+) or without (−) equal amount of in vitro synthesized RXRα protein at room temperature for 10 minutes. Following this preincubation, the reaction mixtures were incubated with ^32p-labelled palindromic TRE (for 1 sequence see FIG. 2a) and analyzed by gel retardation assay as described in Experimental Procedures. […] As a control, equal amounts of TRα and RARα proteins were also mixed and incubated with labelled TRE.
as §2, with “EDTA). To analyze the effect of RXRα or the nuclear proteins on receptor DNA binding activity, RXRα or the cell extracts were preincubated with receptor protein at room temperature for 10 minutes before performing the DNA binding assay.” for “EDTA).”

RARγ/RXRα heterodimer = RARγ/RXRα heterodimer (UniProt P13631;P19793 P13631:1-454,P19793:1-462); experiment: EMSA; conditions: label: 32P
Procedure: as §4
as §3, with “In vitro translated receptor protein (1 to 5 μl depending on the translation efficiency) was incubated with the ^32P-labeled oligonucleotides in a 20-μl reaction mixture containing 10 mM hepes buffer, pH 7.9, 50 mM KCl, 1 mM DTT, 2.5 mM MgCl, 10% glycerol, and 1 μg of poly(dI-dC) at 25° C. for 20 minutes. In” for “In”

TRβ = target: T2, TRβ (UniProt P10828 P10828:1-461); experiment: EMSA; conditions: label: 32P
T2 sequence: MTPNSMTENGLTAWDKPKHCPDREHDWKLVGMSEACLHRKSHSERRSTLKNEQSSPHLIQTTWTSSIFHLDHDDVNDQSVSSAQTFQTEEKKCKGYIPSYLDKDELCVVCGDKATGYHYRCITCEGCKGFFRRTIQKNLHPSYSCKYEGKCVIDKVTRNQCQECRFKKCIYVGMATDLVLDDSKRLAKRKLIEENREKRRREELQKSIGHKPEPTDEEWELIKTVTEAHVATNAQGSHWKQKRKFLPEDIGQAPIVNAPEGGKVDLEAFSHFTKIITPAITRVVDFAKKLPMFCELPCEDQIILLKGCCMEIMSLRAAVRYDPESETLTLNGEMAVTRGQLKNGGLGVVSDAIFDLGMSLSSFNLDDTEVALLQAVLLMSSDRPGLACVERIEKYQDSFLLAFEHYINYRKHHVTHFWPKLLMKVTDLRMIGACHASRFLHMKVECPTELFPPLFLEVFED
Procedure: as §4
as §3, with “In vitro translated receptor protein (1 to 5 μl depending on the translation efficiency) was incubated with the ^32P-labeled oligonucleotides in a 20-μl reaction mixture containing 10 mM hepes buffer, pH 7.9, 50 mM KCl, 1 mM DTT, 2.5 mM MgCl, 10% glycerol, and 1 μg of poly(dI-dC) at 25° C. for 20 minutes. In” for “In”

RARγ/RXRαm4 = RARγ/RXRαm4 (UniProt P13631;P19793 P13631:1-454,P19793:61-462, RXRα N-terminal deletion of 61 aa); experiment: EMSA; faster migrating than RXRαm3 complex; conditions: label: 32P
Procedure: as §3, with “In vitro translated receptor protein (1 to 5 μl depending on the translation efficiency) was incubated with the ^32P-labeled oligonucleotides in a 20-μl reaction mixture containing 10 mM hepes buffer, pH 7.9, 50 mM KCl, 1 mM DTT, 2.5 mM MgCl, 10% glycerol, and 1 μg of poly(dI-dC) at 25° C. for 20 minutes. In” for “In”

[2] = target: Flag-RXRα/TRα heterodimer (UniProt P19793;P10827-2 P19793:1-462,P10827-2:1-410); experiment: EMSA; strongly reduced by anti-Flag; conditions: tags: N-terminal Flag on RXRα; label: 32P
Procedure: As a control, receptor mixtures were also incubated with preimmune serum (NI).
as §3, with “In vitro translated receptor protein (1 to 5 μl depending on the translation efficiency) was incubated with the ^32P-labeled oligonucleotides in a 20-μl reaction mixture containing 10 mM hepes buffer, pH 7.9, 50 mM KCl, 1 mM DTT, 2.5 mM MgCl, 10% glycerol, and 1 μg of poly(dI-dC) at 25° C. for 20 minutes. In” for “In”

TRα/RXRαm3 = TRα/RXRαm3 (UniProt P10827-2;P19793 P10827-2:1-410,P19793:28-462, RXRα N-terminal deletion of 28 aa); experiment: EMSA; conditions: label: 32P
Procedure: as §3, with “In vitro translated receptor protein (1 to 5 μl depending on the translation efficiency) was incubated with the ^32P-labeled oligonucleotides in a 20-μl reaction mixture containing 10 mM hepes buffer, pH 7.9, 50 mM KCl, 1 mM DTT, 2.5 mM MgCl, 10% glycerol, and 1 μg of poly(dI-dC) at 25° C. for 20 minutes. In” for “In”

Measured: binding result

TRα/RXRαm4, sequence (P19793 62-462, stated change not applied, one chain of several): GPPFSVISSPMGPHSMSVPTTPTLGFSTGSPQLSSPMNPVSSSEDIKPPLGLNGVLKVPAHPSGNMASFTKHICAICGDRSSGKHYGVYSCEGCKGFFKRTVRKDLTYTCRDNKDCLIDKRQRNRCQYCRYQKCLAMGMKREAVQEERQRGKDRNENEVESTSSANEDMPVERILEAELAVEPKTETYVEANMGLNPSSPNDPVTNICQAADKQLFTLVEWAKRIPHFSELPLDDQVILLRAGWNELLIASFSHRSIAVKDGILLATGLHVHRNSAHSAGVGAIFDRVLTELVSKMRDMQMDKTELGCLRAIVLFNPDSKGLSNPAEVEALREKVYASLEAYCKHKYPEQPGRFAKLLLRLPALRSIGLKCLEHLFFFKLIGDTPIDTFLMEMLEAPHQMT
RARγ/RXRαm4, sequence (P13631 whole entry, stated change not applied, chain 1 of 2): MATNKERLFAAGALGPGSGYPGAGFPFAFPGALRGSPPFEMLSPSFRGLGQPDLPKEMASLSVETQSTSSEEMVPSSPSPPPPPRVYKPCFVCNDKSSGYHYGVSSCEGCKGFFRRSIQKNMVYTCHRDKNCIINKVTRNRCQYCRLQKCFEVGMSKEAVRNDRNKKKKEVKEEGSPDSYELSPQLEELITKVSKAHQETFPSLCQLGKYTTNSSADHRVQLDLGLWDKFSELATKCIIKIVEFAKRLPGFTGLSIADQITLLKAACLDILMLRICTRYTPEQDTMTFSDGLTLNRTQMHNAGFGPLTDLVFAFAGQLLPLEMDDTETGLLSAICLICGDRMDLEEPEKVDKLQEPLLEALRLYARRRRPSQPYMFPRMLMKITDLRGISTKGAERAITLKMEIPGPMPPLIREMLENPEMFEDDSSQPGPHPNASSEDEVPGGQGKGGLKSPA
RARγ/RXRαm4, sequence (P19793 62-462, stated change not applied, chain 2 of 2): as the sequence (P19793 62-462, stated change not applied, one chain of several) above
RARγ/RXRα heterodimer, sequence (P13631 whole entry, chain 1 of 2): as the sequence (P13631 whole entry, stated change not applied, chain 1 of 2) above
RARγ/RXRα heterodimer, sequence (P19793 whole entry, chain 2 of 2): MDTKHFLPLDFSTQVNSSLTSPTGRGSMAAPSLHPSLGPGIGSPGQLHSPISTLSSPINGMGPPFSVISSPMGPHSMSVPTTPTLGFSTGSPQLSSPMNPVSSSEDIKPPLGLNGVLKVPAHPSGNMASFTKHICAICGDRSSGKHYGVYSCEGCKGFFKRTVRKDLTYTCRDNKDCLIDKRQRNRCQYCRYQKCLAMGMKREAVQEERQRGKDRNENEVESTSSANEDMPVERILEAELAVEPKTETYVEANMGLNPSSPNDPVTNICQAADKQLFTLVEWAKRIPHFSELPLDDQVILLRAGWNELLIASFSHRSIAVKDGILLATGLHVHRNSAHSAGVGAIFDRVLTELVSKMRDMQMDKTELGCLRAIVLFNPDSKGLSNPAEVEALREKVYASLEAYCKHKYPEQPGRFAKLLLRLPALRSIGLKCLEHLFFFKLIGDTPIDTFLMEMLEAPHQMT
TRβ/RXRα heterodimer, sequence (P19793 whole entry, chain 2 of 2, one chain of several): as the sequence (P19793 whole entry, chain 2 of 2) above
Flag-TRα/RXRα heterodimer, sequence (P19793 whole entry, one chain of several): as the sequence (P19793 whole entry, chain 2 of 2) above
Flag-RXRα/TRα heterodimer, sequence (P19793 whole entry, one chain of several): as the sequence (P19793 whole entry, chain 2 of 2) above
TRα/RXRαm3, sequence (P19793 29-462, stated change not applied, one chain of several): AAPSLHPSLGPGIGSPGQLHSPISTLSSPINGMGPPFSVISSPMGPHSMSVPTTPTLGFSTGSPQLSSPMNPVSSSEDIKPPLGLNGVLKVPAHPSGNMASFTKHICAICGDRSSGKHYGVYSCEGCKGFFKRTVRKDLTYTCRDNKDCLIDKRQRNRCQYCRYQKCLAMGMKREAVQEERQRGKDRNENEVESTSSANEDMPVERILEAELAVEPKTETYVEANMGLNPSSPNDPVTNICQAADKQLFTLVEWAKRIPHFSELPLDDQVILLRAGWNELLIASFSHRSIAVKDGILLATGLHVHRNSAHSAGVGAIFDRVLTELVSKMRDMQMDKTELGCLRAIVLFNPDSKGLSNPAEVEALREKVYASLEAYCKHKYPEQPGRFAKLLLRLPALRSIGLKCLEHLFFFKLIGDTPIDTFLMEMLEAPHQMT

B1: palindromic TRE (dsDNA)
DNA 1: GATCTCAGGTCATGACCTGAGATC
DNA 2: GATCTCAGGTCATGACCTGAGATC
binds: [1] | Flag-TRα | TRα/RXRαm4 | TRβ/RXRα heterodimer | RARγ/RXRα heterodimer | TRβ | RARγ/RXRαm4 | [2] | TRα/RXRαm3
